Assay [1] deals with T1, human claudin 18 splice variant 2 (CLDN18.2) (human).
T1 construct: also called claudin 18 isotype 2
In words: flow cytometry (Table 6); APC-conjugated secondary antibody; binding assay 1; normalized to IMAB362. A general note: Flow cytometry measures light scatter and fluorescence of single cells or particles in a stream.
Protocol: (§1) 100 μl of the cell suspension per well (correspond to 2×10⁵ cells/well) were transferred to a round bottom 96-well microtiter plate. […] The cells were centrifuged for 1 min at 1500 rpm and the supernatant was discarded. […] After incubation, 100 μl FACS buffer were added to each sample, the cells were centrifuged for 1 min at 1500 rpm and the supernatant was discarded. The washing step with FACS buffer was repeated twice. Finally, the cells were resuspended in 100 μl FACS buffer and binding was determined using a BD FACS Array Bioanalyzer.

Assay [2] deals with T1, human claudin 18 splice variant 2 …. Briefly: flow cytometry (Table 6); APC-conjugated secondary antibody; binding assay 1.
Protocol: as §1
Antibodies marked with the same number (1 or 2) were tested in the same binding assay.
Assay [3] has the same target. In words: flow cytometry, HEK293 cells stably expressing CLDN18.2; APC-conjugated secondary antibody; binding assay 3; normalized to IMAB362.
Protocol: as §1
Assay [4] has the same target. In words: flow cytometry, HEK293 cells stably expressing CLDN18.2; APC-conjugated secondary antibody; binding assay 3.
Protocol: as §1
Assay [5] deals with human claudin 18 splice variant 1 (CLDN18.1) (human, UniProt P56856 1-261). In words: flow cytometry, HEK293 cells stably expressing CLDN18.1 (column 'CLDN18.1 reactive').
Assay [6] has as its target T1, human claudin 18 splice variant 2 …. Briefly: flow cytometry (Table 6); ProteinL-FITC detection.
Protocol: as §1
For assay [7] the target is unchanged. In words: flow cytometry, HEK293 cells stably expressing CLDN18.2; ProteinL-FITC detection; binding assay 4; normalized to IMAB362.
Protocol: as §1
Assay [8] shares this target. In words: flow cytometry (Table 6); ProteinL-FITC detection; normalized to IMAB362.
Protocol: as §1
Assay [9] shares this target. Briefly: cell-based or functional assay.
The target is the same in assay [10]. Briefly: flow cytometry, HEK293 cells stably expressing CLDN18.2; ProteinL-FITC detection; binding assay 4.
The target is the same in assay [11]. In words: flow cytometry on NUGC-4 10cF7-5 sort 3a cells (endogenous CLDN18.2), antibody up to 20 µg/ml.
Protocol: as §1
Assay [12] shares this target. Briefly: flow cytometry on NCI-N87~CLDN18.2 cells, antibody up to 20 µg/ml.
Protocol: as §1
The target is the same in assay [13]. Briefly: cell-based or functional assay. This is another data set of the same source.
For assay [14] the target is unchanged. Briefly: flow cytometry on NUGC-4 10cE8 cells (endogenous CLDN18.2), antibody up to 20 µg/ml.
Protocol: as §1
Binding properties were tested at different antibody concentrations in a range of 0.1 to 20 μg/ml (FIG. 4, Table 8).
The target is the same in assay [15]. Briefly: flow cytometry on BxPC-3~CLDN18.2 cells, antibody up to 20 µg/ml.
Protocol: as §1
Assay [16] shares this target. In words: flow cytometry on NUGC-4 10cF7-5 sort 3a cells (endogenous CLDN18.2), second assay.
Assay [17] shares this target. In words: flow cytometry on BxPC-3~CLDN18.2 cells, second assay.
Assay [18] has the same target. In words: cell-based or functional assay. The source holds these as a separate data set.
Assay [19] shares this target. In words: flow cytometry on HEK293~CLDN18.2 cells, antibody up to 20 µg/ml.
Protocol: Binding was analyzed by flow cytometry at antibody concentrations up to 20 μg/ml. Data points (n=2 replicates) are depicted as mean±SD.
as §1
The binding specificity was analyzed by flow cytometry using HEK293 transfectants engineered to overexpress human CLDN18.2 or the highly homologous protein human CLDN18.1.
For assay [20] the target is unchanged. In words: flow cytometry on NUGC-4 10cE8 cells (endogenous CLDN18.2), second assay.
For assay [21] the target is unchanged. Briefly: cell-based or functional assay. The source holds these as a separate data set.

B1: chim mAB62 (antibody, V domains shown)
VH: QVQLQQSGAELMKPGASVKISCKATGYTFSSYWIEWVKQRPGHGLEWIGEILPGSGSTNYNEKFKGKATFTADTSSNTAYMQLSSLTSEDSAVYYCARYDYPWFAYWGQGTLVTVSA
VL: QIVLTQSPAIMSASPGEKVTITCSASSSVSYMHWFQQKPGTSPKLWIYSTSNLASGVPARFSGSGSGTSYSLTISRMEAEDAATYYCQQRSSYPPTFGGGTKLEIKR
With B1, in assay [1], the “EC50 normalized [%]” value turned out to be 5540% and the “Max. binding normalized [%]” value is 22%. In [2], the EC50 (in general, the concentration at which the effect is half-maximal) is 32.3 µg/mL and the “Max. binding [MFI]” value is 4080 MFI.

B2: mu mAB62 (antibody, mouse IgG2a, V domains shown)
VH: QVQLQQSGAELMKPGASVKISCKATGYTFSSYWIEWVKQRPGHGLEWIGEILPGSGSTNYNEKFKGKATFTADTSSNTAYMQLSSLTSEDSAVYYCARYDYPWFAYWGQGTLVTVSA
VL: QIVLTQSPAIMSASPGEKVTITCSASSSVSYMHWFQQKPGTSPKLWIYSTSNLASGVPARFSGSGSGTSYSLTISRMEAEDAATYYCQQRSSYPPTFGGGTKLEIK
notes: mouse IgG2a kappa
For B2, in [3], the “EC50 normalized [%]” value stood at 4280% and the “Max. binding normalized [%]” value came out at 35%. Besides, in assay [4], the EC50 was found to be 27.9 µg/mL and the “Max. binding [MFI]” value was 2800 MFI. Also, the binding result in assay [5] is “no binding”.

B3: mu mAB362 (mouse IgG1) (antibody, V domains shown)
VH: QVQLQQPGAELVRPGASVKLSCKASGYTFTSYWINWVKQRPGQGLEWIGNIYPSDSYTNYNQKFKDKATLTVDKSSSTAYMQLSSPTSEDSAVYYCTRSWRGNSFDYWGQGTTLTVSS
VL: DIVMTQSPSSLTVTAGEKVTMSCKSSQSLLNSGNQKNYLTWYQQKPGQPPKLLIYWASTRESGVPDRFTGSGSGTDFTLTISSVQAEDLAVYYCQNDYSYPFTFGSGTKLEIK
notes: also called mu muAB362 (IgG1)
B3: the results for the “EC50 normalized [%]” value in [3], in [7] and in assay [8] were 343%, 345% and 53%, respectively. Besides, the “Max. binding normalized [%]” value in assay [3] and in assay [7] was 111% in each case. Also, the EC50 came to 0.654 µg/mL in [6], 2.24 µg/mL in [4] and 4.29 µg/mL in [10]. For the same molecule, the “Max. binding [MFI]” value in [4] was 8830 MFI; in assay [10], 5910 MFI. In assay [9], the “Cell viability EC50 [%] normalized to IMAB362, Fab-ZAP endocytosis assay” value was 17%. Besides, the “Cell viability EC50 [ng/ml], Fab-ZAP endocytosis assay on HEK293~CLDN18.2 cells” value in assay [9] is 2.2 ng/mL. The “Max. viability reduction normalized [%], Fab-ZAP endocytosis assay” value in assay [9] worked out at 66%.

B4: IMAB362-DM4 (antibody, human IgG1, kappa, V domains shown)
VH: QVQLQQPGAELVRPGASVKLSCKASGYTFTSYWINWVKQRPGQGLEWIGNIYPSDSYTNYNQKFKDKATLTVDKSSSTAYMQLSSPTSEDSAVYYCTRSWRGNSFDYWGQGTTLTVSS
VL: DIVMTQSPSSLTVTAGEKVTMSCKSSQSLLNSGNQKNYLTWYQQKPGQPPKLLIYWASTRESGVPDRFTGSGSGTDFTLTISSVQAEDLAVYYCQNDYSYPFTFGSGTKLEIKR
modifications: DM4 coupled via SPDB linker to primary amines (lysine side chains or N-terminus) of the antibody; drug to antibody ratio 3.2; sites not stated
Take B4: the EC50 in assay [11] came to 2.6 µg/mL; in assay [12], 0.274 µg/mL; in assay [14], 3.05 µg/mL; in [15] it was 0.507 µg/mL; in assay [16], 3.91 µg/mL; in assay [17], 0.425 µg/mL. Besides, the EC50 in assay [19] is 1.47 µg/mL; in assay [20] it was 7.49 µg/mL. In assay [13], the “CDC EC50 [ng/ml], KATO-III FGF-BP#12 adM p3151#25 cells” value was determined as 6440 ng/mL. In assay [13], the “CDC EC50 [ng/ml], NUGC-4 10cF7_5 sort3a p3151#10 cells” value came out at 15800 ng/mL. Moreover, the “ADCC EC50 [ng/ml], NUGC-4 10cF7_5 sort3a p3151#10 cells, PBMC of Donor 1” value in [18] turned out to be 1150 ng/mL. Besides, the “ADCC EC50 [ng/ml], NUGC-4 10cF7_5 sort3a p3151#10 cells, PBMC of Donor 2” value in assay [18] came out at 217 ng/mL. Besides, the “EC50 [ng/ml] of reduction of cell viability (XTT, 72 h), BxPC-3~CLDN18.2 cells” value in [21] came to 43 ng/mL. Moreover, the “EC50 [ng/ml] of reduction of cell viability (XTT, 72 h), BxPC-3~CLDN18.2 cells, second assay” value in assay [21] was found to be 54 ng/mL. Further, in assay [21], the “EC50 [ng/ml] of reduction of cell viability (XTT, 72 h), NCI-N87~CLDN18.2 cells” value worked out at 75 ng/mL. The “EC50 [ng/ml] of reduction of cell viability (XTT, 72 h), NUGC-4 10cE8 cells” value in [21] was 372 ng/mL. Moreover, in assay [21], the “EC50 [ng/ml] of reduction of cell viability (XTT, 72 h), NUGC-4 10cF7-5 sort 3a cells” value turned out to be 155 ng/mL.

B5: mu mAB362 (mouse IgG2a) (antibody, V domains shown)
VH: QVQLQQPGAELVRPGASVKLSCKASGYTFTSYWINWVKQRPGQGLEWIGNIYPSDSYTNYNQKFKDKATLTVDKSSSTAYMQLSSPTSEDSAVYYCTRSWRGNSFDYWGQGTTLTVSS
VL: DIVMTQSPSSLTVTAGEKVTMSCKSSQSLLNSGNQKNYLTWYQQKPGQPPKLLIYWASTRESGVPDRFTGSGSGTDFTLTISSVQAEDLAVYYCQNDYSYPFTFGSGTKLEIK
notes: Mouse IgG2a form of mu mAB362; also called mu muAB362 (IgG2a)
B5: in assay [6], the midpoint of the response, the EC50, lay at 4.29 µg/mL. In addition, the “EC50 normalized [%]” value in assay [7] stood at 53%. Besides, in assay [8], the “EC50 normalized [%]” value was determined as 345%. In assay [9], the “Cell viability EC50 [%] normalized to IMAB362, Fab-ZAP endocytosis assay” value is 231%; the “Cell viability EC50 [ng/ml], Fab-ZAP endocytosis assay on HEK293~CLDN18.2 cells” value is about 30 ng/mL; the “Max. viability reduction normalized [%], Fab-ZAP endocytosis assay” value was determined as 66%. In [10], the EC50 worked out at 0.654 µg/mL and the “Max. binding [MFI]” value came out at 4880 MFI.

B6: mu mAB294 (antibody, V domains shown)
VH: QIQLVQSGPELKKPGETVKISCKASGYTFTNYGMNWVKQAPGKGLKWMGWINTNTGEPTYAEEFKGRFAFSLETSASTAYLQINNLKNEDTATYFCARLGFGNAMDYWGQGTSVTVSS
VL: DIVMTQSPSSLTVTAGEKVTMSCKSSQSLLNSGNQKNYLTWYQQKPGQPPKLLIYWASTRESGVPDRFTGSGSGTDFTLTISSVQAEDLAVYYCQNDYSYPLTFGAGTKLELK
notes: Tied by its number
Regarding B6, in assay [3], the “EC50 normalized [%]” value is 53% and the “Max. binding normalized [%]” value is 12%. For the same molecule, in [4], a half-maximal response (EC50) required 0.348 µg/mL and the “Max. binding [MFI]” value was determined as 989 MFI. Besides, in assay [5], the binding result is reported as “no binding”.

B7: chim mAB279 (antibody, V domains shown)
VH: QVQLQQSGAELARPGASVKLSCKASGYTFTDYYINWVKQRTGQGLEWIGEIYPGSGNTYYNEKFKGKATLTADKSSSTAYMQLSSLTSEDSAVYFCARSYGAFDYWGQGTTLTVSS
VL: DIVMTQSQKFMSTSVGDRVSITCKASQNVRTAVAWYQQKPGQSPKALIYLASNRHTGVPDRFTGSGSGTDFTLTISNVQSEDLADYFCLQHWNYPLTFGGGTKLEIKR
B7: in assay [1], the “EC50 normalized [%]” value worked out at 10300% and the “Max. binding normalized [%]” value worked out at 24%. In addition, in assay [2], the EC50 worked out at 60 µg/mL and the “Max. binding [MFI]” value was 4390 MFI.

B8: mu mAB279 (antibody, mouse IgG2a, V domains shown)
VH: QVQLQQSGAELARPGASVKLSCKASGYTFTDYYINWVKQRTGQGLEWIGEIYPGSGNTYYNEKFKGKATLTADKSSSTAYMQLSSLTSEDSAVYFCARSYGAFDYWGQGTTLTVSS
VL: DIVMTQSQKFMSTSVGDRVSITCKASQNVRTAVAWYQQKPGQSPKALIYLASNRHTGVPDRFTGSGSGTDFTLTISNVQSEDLADYFCLQHWNYPLTFGGGTKLEIK
notes: mouse IgG2a kappa
For B8, in assay [3], the “EC50 normalized [%]” value amounted to 4% and the “Max. binding normalized [%]” value amounted to 1%. Besides, in [4], the EC50 is 0.027 µg/mL and the “Max. binding [MFI]” value worked out at 118 MFI. Besides, the binding result in assay [5] was “no binding”.

B9: chim mAB308 (antibody, V domains shown)
VH: QVQLQQSGPELVKPGASVKMSCKASGYTFTDYVISWVKQRTGQGLEWIGEIYPGSGSTYYNEKFKGKATLTADKSSNTAYMQLSSLTSEDSAVYFCARGVLLRAMDYWGQGTSVTVSS
VL: DIVMSQSPSSLAVSAGEKVTMSCKSSQSLLNSRTRKNYLAWYQQKPGQSPKLLIYWASTRESGVPDRFTGSGSGTDFTLTISSVQAEDLAVYYCKQSYNLYTFGGGTKLEIKR
In the case of B9, in assay [1], the “EC50 normalized [%]” value amounted to 3240% and the “Max. binding normalized [%]” value was 81%. Moreover, in [2], the midpoint of the response, the EC50, lay at 18.9 µg/mL and the “Max. binding [MFI]” value amounted to 15000 MFI.

These data come from patent publication US20180117174A1 (GANYMED PHARMACEUTICALS, published 2018).
